The values below come from publication PMC6007000 (Nature genetics, 2017).

Non-standard residues stand in square brackets, D forms with d. Residues, ends and D or L forms follow the SMILES beside them. No end group written: not given here. Lys(Me3) = C[N+](C)(C)CCCC[C@H](N)C(=O)O

In assay [1] the target is BAF45c (residues 254–368), PHD1-2 region of DPF3 (Homo sapiens, UniProt Q92784). The assay can be described thus: Isothermal titration calorimetry of H3 tail peptides with DPF3. In kind it is binding.
Assay [2] has as its target PHD1-2 region of human BAF45c (DPF3), residues 254–368 (human) (UniProt Q92784). The assay can be described thus: ITC.

Sequence of PHD1-2 region of human BAF45c (DPF3), residues 254–368 (human) (Q92784 254-368): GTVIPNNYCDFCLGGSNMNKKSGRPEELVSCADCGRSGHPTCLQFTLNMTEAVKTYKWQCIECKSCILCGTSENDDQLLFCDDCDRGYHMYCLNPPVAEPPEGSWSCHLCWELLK
Sequence of BAF45c (residues 254–368), PHD1-2 region of DPF3 (Q92784 254-368): as above

`CC(=O)NCCCC[C@H](NC(=O)CNC(=O)CNC(=O)[C@@H](NC(=O)[C@H](CO)NC(=O)[C@H](CCCCN)NC(=O)[C@H](CCCNC(=N)N)NC(=O)[C@H](C)NC(=O)[C@H](CCCNC(=N)N)NC(=O)[C@@H](NC(=O)[C@H](CCC(N)=O)NC(=O)[C@H](CCCC[N+](C)(C)C)NC(=O)[C@@H](NC(=O)[C@H](CCCNC(=N)N)NC(=O)[C@H](C)N)[C@@H](C)O)[C@@H](C)O)[C@@H](C)O)C(=O)N[C@@H](C)C(=O)N1CCC[C@H]1C(=O)N[C@@H](CCCNC(=N)N)C(=O)N[C@@H](CCCCN)C(=O)O` [H3K4me3/K14ac] (H-ART[Lys(Me3)]QTRARKSTGGK(Ac)APRK-OH): in assay [1], the Kd came to 115 µM.
Same read-out and setting: for ARTKQTRARKSTGGK(Ac)APRK [H3K4me0/K14ac] the value was 7.8 µM.
As for “H3K4me1K14Ac peptide (H3 tail, H3K4me1 and H3K14ac)”, in assay [2], the Kd amounted to 20 µM.
In the case of “H3K4me3K14Ac peptide (H3 tail, H3K4me3 and H3K14ac)”, the Kd in assay [2] was 115 µM.
In assay [2], “H3K14Ac peptide (H3 tail, H3K4me0 and H3K14ac)” came in with an equilibrium dissociation constant (Kd) of 7.8 µM.
